Earlier results as cited in publication PMC6962051.

Target: linear di-ubiquitin (Homo sapiens) (UniProt P0CG47)
Experiment: isothermal titration calorimetry

NEMO CoZi, sequence (Q9Y6K9 258-350): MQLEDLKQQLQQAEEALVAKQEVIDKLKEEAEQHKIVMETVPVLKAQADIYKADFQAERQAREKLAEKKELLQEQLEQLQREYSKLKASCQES

Kd: 2.4 µM
Substance: NEMO CoZi (from UniProt Q9Y6K9)
